Results on one molecule are retold here after paper PMC6536502, “Structural insights into DNA recognition by AimR of the arbitrium communication system in the SPbeta phage” (Cell Discovery, 2019).

One data set deals with T1, AimR N32A (Bacillus phage SPbeta, UniProt O64094 1-386, N32A).
T1 sequence: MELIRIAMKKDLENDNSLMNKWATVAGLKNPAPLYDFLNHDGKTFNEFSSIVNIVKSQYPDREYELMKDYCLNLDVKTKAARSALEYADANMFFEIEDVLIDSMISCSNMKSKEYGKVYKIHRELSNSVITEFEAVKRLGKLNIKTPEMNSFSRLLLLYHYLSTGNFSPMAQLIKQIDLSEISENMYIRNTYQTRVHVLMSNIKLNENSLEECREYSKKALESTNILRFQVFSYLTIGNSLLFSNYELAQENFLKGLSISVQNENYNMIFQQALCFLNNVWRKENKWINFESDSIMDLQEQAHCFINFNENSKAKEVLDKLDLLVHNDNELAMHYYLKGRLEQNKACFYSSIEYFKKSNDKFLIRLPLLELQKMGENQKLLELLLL
Kind of data set: EMSA; 5 mM Mg2+; EMSA: 25 mM Tris-HCl pH 8.0, 150 mM NaCl, 5 mM MgCl2, 5 mM DTT, 0.1 mg/ml BSA, 10% glycerol, 50 ug/ml salmon sperm DNA, 4 C, 15 min; smFRET: 20 mM phosphate pH. Particulars: protein: recombinant; tags: 6xHis removed by drICE; chain copies: 2. For orientation: In EMSA bound probe runs differently from free probe, usually more slowly.

Another data set has as its target T2, AimR (Bacillus phage SPbeta, UniProt O64094 1-386).
T2 sequence: T1 sequence with A32N
The description is as above. To be noted: protein: recombinant; tags: C-terminal 8xHis; chain copies: 2.

The next data set concerns the target T3, AimR K77D (Bacillus phage SPbeta, UniProt O64094 1-386, K77D).
T3 sequence: T1 sequence with A32N, K77D
Put plainly: EMSA; EMSA: 25 mM Tris-HCl pH 8.0, 150 mM NaCl, 5 mM MgCl2, 5 mM DTT, 0.1 mg/ml BSA, 10% glycerol, 50 ug/ml salmon sperm DNA, 4 C, 15 min; smFRET: 20 mM phosphate pH. Particulars: protein: recombinant; tags: 6xHis removed by drICE; chain copies: 2.

A further data set concerns the target T4, AimR N46D (Bacillus phage SPbeta, UniProt O64094 1-386, N46D).
T4 sequence: T1 sequence with A32N, N46D
The data set is described as above. To be noted: protein: recombinant; tags: 6xHis removed by drICE; chain copies: 2.

The target in another data set is T5, AimR N30A (Bacillus phage SPbeta, UniProt O64094 1-386, N30A).
T5 sequence: T1 sequence with N30A, A32N
Described as above. To be noted: protein: recombinant; tags: 6xHis removed by drICE; chain copies: 2.

Changes are numbered by the printed parent chain.

B1: 31 bp aimX-upstream palindromic DNA (dsDNA)
DNA 1: ACTTAAATATTAGGTTTTAATAACATCTAGT
DNA 2: ACTAGATGTTATTAAAACCTAATATTTAAGT
For the molecule B1, the values for the Kd in the data set with AimR N32A and with AimR were 6.82 ± 2.25 µM and 0.101 ± 0.0276 µM, respectively. The binding result with AimR K77D, with AimR N46D and with AimR N30A was “binds” in each case.
